Measurements: patent publication US20170056521A1

Molecular target: human HLA-A2 (human)
Assay: single colony ELISA; soluble scFv supernatant on coated HLA-A2 (0.5 µg/well), anti-E-tag-HRP detection

B1: scFv clone 3E10 (scFv)
scFv: DIQMTQSPSSLSASVGDRVTITCRASQDVFFFVAWYQQKPGKAPKLLIYGPPGLYSGVPSRFSGSGSGTDFTLTISSLQPEDFATYYCQQYFSFPITFGQGTKVEIKRGGGGSIEGRSGGGGSEVQLVESGGGLVQPGGSLRLSCAASGFTISNGGIHWVRQAPGKGLEWVASIWPSGGYTSYADSVKGRFTISADTSKNTAYLQMNSLRAEDTAVYYCARFGVNYHGIMDYWGQGTLVTVSS
  OD450: 1.3 OD450
